Data from IntAct's records for PubMed 35512704.

B1: Mothers against decapentaplegic homolog 4 (Homo sapiens), Q13485 (parent)
chain: MDNMSITNTPTSNDACLSIVHSLMCHRQGGESETFAKRAIESLVKKLKEKKDELDSLITAITTNGAHPSKCVTIQRTLDGRLQVAGRKGFPHVIYARLWRWPDLHKNELKHVKYCQYAFDLKCDSVCVNPYHYERVVSPGIDLSGLTLQSNAPSSMMVKDEYVHDFEGQPSLSTEGHSIQTIQHPPSNRASTETYSTPALLAPSESNATSTANFPNIPVASTSQPASILGGSHSEGLLQIASGPQPGQQQNGFTGQPATYHHNSTTTWTGSRTAPYTPNLPHHQNGHLQHHPPMPPHPGHYWPVHNELAFQPPISNHPAPEYWCSIAYFEMDVQVGETFKVPSSCPIVTVDGYVDPSGGDRFCLGQLSNVHRTEAIERARLHIGKGVQLECKGEGDVWVRCLSDHAVFVQSYYLDREAGRAPGDAVHKIYPSAYIKVFDLRQCHRQMQQQAATAQAAAAAQAAAVAGNIPGPGSVGGIAPAISLSAAAGIGVDDLRRLCILRMSFVKGWGPDYPRQSIKETPCWIEIHLHRALQLLDEVLHTMPIADPQPLD
partner: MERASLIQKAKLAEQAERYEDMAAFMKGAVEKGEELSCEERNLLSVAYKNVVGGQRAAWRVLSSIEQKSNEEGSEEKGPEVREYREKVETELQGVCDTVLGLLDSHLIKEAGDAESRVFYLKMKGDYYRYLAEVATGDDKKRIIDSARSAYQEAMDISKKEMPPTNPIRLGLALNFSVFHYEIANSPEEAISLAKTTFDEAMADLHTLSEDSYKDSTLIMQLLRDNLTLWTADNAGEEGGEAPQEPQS
B2: Mothers against decapentaplegic homolog 4 (Homo sapiens), Q13485 (parent)
chain: B1 chain
partner: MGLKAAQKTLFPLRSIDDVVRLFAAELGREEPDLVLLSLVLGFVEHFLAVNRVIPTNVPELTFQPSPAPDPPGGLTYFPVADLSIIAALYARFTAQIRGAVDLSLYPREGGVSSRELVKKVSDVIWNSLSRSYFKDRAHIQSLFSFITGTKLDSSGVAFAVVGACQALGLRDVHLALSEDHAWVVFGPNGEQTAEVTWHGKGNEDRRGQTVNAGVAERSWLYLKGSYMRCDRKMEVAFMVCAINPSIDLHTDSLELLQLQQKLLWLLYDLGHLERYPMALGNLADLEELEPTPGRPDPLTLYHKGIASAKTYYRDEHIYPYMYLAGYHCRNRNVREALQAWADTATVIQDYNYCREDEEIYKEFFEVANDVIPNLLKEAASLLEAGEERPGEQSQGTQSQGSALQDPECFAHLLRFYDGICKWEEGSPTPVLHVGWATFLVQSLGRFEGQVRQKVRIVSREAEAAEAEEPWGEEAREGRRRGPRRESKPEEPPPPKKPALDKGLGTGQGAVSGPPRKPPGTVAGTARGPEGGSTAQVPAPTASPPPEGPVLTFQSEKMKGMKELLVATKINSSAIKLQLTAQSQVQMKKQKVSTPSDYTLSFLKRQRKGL
B3: Mothers against decapentaplegic homolog 4 (Homo sapiens), Q13485 (parent)
chain: B1 chain
partner: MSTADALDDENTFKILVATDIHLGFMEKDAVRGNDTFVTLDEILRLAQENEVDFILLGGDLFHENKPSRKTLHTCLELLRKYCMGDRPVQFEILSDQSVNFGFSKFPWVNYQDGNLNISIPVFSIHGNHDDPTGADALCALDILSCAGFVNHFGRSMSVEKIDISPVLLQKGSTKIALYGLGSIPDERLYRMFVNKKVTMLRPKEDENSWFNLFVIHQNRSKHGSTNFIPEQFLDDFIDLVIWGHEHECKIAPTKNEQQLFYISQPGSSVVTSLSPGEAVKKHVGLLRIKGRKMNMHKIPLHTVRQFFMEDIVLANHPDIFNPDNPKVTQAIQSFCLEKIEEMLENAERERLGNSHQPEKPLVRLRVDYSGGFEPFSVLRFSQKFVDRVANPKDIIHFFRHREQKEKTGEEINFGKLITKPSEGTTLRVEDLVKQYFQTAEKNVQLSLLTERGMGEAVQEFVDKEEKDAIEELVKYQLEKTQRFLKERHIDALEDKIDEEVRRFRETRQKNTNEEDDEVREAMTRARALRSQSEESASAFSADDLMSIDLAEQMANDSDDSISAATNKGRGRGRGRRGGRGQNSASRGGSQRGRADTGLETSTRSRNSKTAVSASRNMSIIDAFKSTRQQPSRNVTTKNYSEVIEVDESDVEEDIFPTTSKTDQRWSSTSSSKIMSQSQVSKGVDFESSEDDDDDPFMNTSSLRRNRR
B4: Mothers against decapentaplegic homolog 4 (Homo sapiens), Q13485 (parent)
chain: B1 chain
partner: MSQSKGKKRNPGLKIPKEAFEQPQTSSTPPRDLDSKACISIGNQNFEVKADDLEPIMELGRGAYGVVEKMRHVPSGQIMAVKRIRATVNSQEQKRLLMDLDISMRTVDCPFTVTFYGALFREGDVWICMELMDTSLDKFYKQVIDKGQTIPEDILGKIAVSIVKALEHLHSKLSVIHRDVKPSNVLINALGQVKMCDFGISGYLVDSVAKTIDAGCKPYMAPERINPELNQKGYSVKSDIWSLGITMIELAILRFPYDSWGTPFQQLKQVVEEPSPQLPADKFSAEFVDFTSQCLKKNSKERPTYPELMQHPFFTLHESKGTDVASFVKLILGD
B5: Mothers against decapentaplegic homolog 4 (Homo sapiens), Q13485 (parent)
chain: B1 chain
partner: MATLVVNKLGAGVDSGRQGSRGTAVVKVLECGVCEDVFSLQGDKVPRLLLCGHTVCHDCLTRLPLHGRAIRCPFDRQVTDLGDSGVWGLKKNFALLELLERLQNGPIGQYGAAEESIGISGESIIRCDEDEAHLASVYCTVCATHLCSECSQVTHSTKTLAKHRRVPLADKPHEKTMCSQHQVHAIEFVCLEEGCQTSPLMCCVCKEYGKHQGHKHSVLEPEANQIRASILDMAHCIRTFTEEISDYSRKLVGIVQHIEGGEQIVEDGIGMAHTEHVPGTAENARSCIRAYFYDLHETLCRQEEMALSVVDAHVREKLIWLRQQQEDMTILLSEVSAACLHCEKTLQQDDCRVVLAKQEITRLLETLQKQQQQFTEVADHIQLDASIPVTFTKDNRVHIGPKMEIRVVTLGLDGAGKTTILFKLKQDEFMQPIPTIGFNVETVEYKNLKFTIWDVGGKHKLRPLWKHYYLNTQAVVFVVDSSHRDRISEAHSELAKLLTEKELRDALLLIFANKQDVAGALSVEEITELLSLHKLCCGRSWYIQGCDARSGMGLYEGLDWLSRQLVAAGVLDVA
B6: Mothers against decapentaplegic homolog 4 (Homo sapiens), Q13485 (parent)
chain: B1 chain
partner: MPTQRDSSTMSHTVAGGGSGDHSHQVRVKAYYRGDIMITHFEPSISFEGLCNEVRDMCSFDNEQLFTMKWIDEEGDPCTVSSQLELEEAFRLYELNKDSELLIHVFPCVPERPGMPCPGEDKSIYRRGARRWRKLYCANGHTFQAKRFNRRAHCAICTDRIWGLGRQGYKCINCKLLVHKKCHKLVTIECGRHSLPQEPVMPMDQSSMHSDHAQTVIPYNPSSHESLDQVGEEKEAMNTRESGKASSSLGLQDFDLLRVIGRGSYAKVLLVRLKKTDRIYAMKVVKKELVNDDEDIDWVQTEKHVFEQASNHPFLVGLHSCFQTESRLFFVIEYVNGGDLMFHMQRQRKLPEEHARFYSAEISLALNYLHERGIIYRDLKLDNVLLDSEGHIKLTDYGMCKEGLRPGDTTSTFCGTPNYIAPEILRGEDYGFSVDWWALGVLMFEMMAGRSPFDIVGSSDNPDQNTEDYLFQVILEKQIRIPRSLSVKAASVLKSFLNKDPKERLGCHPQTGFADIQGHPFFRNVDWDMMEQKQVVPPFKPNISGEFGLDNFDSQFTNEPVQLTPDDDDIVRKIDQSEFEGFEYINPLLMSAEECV
B7: Mothers against decapentaplegic homolog 4 (Homo sapiens), Q13485 (parent)
chain: B1 chain
partner: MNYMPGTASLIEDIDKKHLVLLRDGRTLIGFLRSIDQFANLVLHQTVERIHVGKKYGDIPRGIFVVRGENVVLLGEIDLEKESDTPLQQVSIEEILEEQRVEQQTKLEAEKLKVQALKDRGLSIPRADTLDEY
B8: Mothers against decapentaplegic homolog 4 (Homo sapiens), Q13485 (parent)
chain: B1 chain
partner: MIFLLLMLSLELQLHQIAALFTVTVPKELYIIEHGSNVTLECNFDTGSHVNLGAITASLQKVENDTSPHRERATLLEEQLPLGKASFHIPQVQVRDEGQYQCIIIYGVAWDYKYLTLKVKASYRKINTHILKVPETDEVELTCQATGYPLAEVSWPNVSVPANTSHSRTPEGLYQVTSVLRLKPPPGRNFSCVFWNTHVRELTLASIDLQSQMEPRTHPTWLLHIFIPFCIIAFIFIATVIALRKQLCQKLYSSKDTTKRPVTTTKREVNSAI

Variants of: B1
Conditions: with 1433s_human SFN

| Variant | effect of a mutation on the interaction |
| --- | --- |
| R361H | with no effect |

Variants of: B2
Conditions: with men1_human MEN1, O00255

| Variant | effect of a mutation on the interaction |
| --- | --- |
| R361H | with no effect |

Variants of: B2
Conditions: with men1_human MEN1, O00255
Remark: another data set of the same source

| Variant | effect of a mutation on the interaction |
| --- | --- |
| R361C | with no effect |

Variants of: B2
Conditions: with men1_human MEN1, O00255
Remark: another data set of the same source

| Variant | effect of a mutation on the interaction |
| --- | --- |
| D351H | with no effect |

Variants of: B2
Conditions: with men1_human MEN1, O00255
Remark: another data set of the same source

| Variant | effect of a mutation on the interaction |
| --- | --- |
| G386D | with no effect |

Variants of: B3
Conditions: with mre11_human MRE11, P49959

| Variant | effect of a mutation on the interaction |
| --- | --- |
| D351H | with no effect |

Variants of: B3
Conditions: with mre11_human MRE11, P49959
Remark: another data set of the same source

| Variant | effect of a mutation on the interaction |
| --- | --- |
| G386D | with no effect |

Variants of: B3
Conditions: with mre11_human MRE11, P49959
Remark: another data set of the same source

| Variant | effect of a mutation on the interaction |
| --- | --- |
| R361C | with no effect |

Variants of: B3
Conditions: with mre11_human MRE11, P49959
Remark: another data set of the same source

| Variant | effect of a mutation on the interaction |
| --- | --- |
| R361H | with no effect |

Variants of: B4
Conditions: with mp2k6_human MAP2K6, P52564

| Variant | effect of a mutation on the interaction |
| --- | --- |
| G386D | with no effect |

Variants of: B4
Conditions: with mp2k6_human MAP2K6, P52564
Remark: another data set of the same source

| Variant | effect of a mutation on the interaction |
| --- | --- |
| R361H | with no effect |

Variants of: B4
Conditions: with mp2k6_human MAP2K6, P52564
Remark: another data set of the same source

| Variant | effect of a mutation on the interaction |
| --- | --- |
| R361C | with no effect |

Variants of: B4
Conditions: with mp2k6_human MAP2K6, P52564
Remark: another data set of the same source

| Variant | effect of a mutation on the interaction |
| --- | --- |
| D351H | with no effect |

Variants of: B5
Conditions: with tri23_human TRIM23, P36406

| Variant | effect of a mutation on the interaction |
| --- | --- |
| R361C | with no effect |

Variants of: B5
Conditions: with tri23_human TRIM23, P36406
Remark: another data set of the same source

| Variant | effect of a mutation on the interaction |
| --- | --- |
| G386D | with no effect |

Variants of: B5
Conditions: with tri23_human TRIM23, P36406
Remark: another data set of the same source

| Variant | effect of a mutation on the interaction |
| --- | --- |
| D351H | with no effect |

Variants of: B6
Conditions: with kpci_human PRKCI

| Variant | effect of a mutation on the interaction |
| --- | --- |
| D351H | with no effect |

Variants of: B6
Conditions: with kpci_human PRKCI
Remark: another data set of the same source

| Variant | effect of a mutation on the interaction |
| --- | --- |
| R361H | with no effect |

Variants of: B7
Conditions: with lsm1_human LSM1, O15116

| Variant | effect of a mutation on the interaction |
| --- | --- |
| R361C | with no effect |

Variants of: B7
Conditions: with lsm1_human LSM1, O15116
Remark: another data set of the same source

| Variant | effect of a mutation on the interaction |
| --- | --- |
| R361H | with no effect |

Variants of: B7
Conditions: with lsm1_human LSM1, O15116
Remark: another data set of the same source

| Variant | effect of a mutation on the interaction |
| --- | --- |
| G386D | with no effect |

Variants of: B7
Conditions: with lsm1_human LSM1, O15116
Remark: another data set of the same source

| Variant | effect of a mutation on the interaction |
| --- | --- |
| D351H | with no effect |

Variants of: B8
Conditions: with pd1l2_human PDCD1LG2, Q9BQ51

| Variant | effect of a mutation on the interaction |
| --- | --- |
| D351H | with no effect |

Variants of: B8
Conditions: with pd1l2_human PDCD1LG2, Q9BQ51
Remark: another data set of the same source

| Variant | effect of a mutation on the interaction |
| --- | --- |
| G386D | with no effect |
